# Where a chain is given by its changes, count along the chain named.
# T1: human IGSF11 (VSIG3) on cells (human, UniProt Q5DX21 23-431)
# T1 sequence: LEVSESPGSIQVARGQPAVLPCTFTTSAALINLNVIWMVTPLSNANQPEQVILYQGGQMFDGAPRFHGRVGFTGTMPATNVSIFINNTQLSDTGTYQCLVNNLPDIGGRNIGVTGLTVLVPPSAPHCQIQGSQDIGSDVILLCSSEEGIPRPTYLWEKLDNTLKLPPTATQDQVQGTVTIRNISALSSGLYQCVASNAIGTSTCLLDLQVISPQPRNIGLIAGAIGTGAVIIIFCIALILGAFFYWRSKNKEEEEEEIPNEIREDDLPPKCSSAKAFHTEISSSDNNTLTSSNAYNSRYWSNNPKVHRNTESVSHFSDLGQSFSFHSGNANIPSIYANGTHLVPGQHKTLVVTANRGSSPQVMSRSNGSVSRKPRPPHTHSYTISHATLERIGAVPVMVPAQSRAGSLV
# T2: His-tagged extracellular domain (ECD) of human IGSF11 (VSIG3) (human, UniProt Q5DX21 23-241)
# T2 construct: partly bought (SinoBiological 13094-H08H); also called IGSF11-HIS; HIS-IGSF11; not shown: HIS6 tag
# T2 sequence: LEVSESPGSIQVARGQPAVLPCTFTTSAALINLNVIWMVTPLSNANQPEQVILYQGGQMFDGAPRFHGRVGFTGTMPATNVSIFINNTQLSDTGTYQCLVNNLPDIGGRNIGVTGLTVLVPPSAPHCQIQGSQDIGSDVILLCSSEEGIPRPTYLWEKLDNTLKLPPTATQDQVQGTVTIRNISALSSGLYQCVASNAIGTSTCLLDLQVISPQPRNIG
# T3: IGSF11 ECD fused to murine-Fc (human; mouse, UniProt Q5DX21 23-241)
# T3 construct: also called Fc-fusion IGSF11 ECD; full-length ECD of IGSF11; not shown: murine Fc
# T3 sequence: T2 sequence
# T4: recombinant human IGSF11 (VSIG3) extracellular domain (ECD) (human, UniProt Q5DX21 23-241, biotinylated where captured on streptavidin)
# T4 construct: also called biotinylated recombinant ECD-IGSF11; IGSF11 (ECD domain)
# T4 sequence: T2 sequence
# B1: A-015 (IgG1 format) (antibody, V domains shown)
# VH: not shown
# VL: QPVLTQSPSASASLGASVKLTCTLSSGHTNYAIAWRQQQPGKAPRYLMLLNSDGSHTRGGGIPDRFSGSSSGAERYLTISSLQSEDEADYYCMIWHNNAWVFGGGTKLAVL
# notes: human IgG1 format
# B2: A-027 (IgG1 format) (antibody, V domains shown)
# VH: QVQLVQSGAEVKKPGSSVKVSCKASGGTFSSYAISWVRQAPGQGLEWMGGIIPIFGTANYAQKFQGRVTITADKSTSTAYMELSSLRSEDTAVYYCARARGSTWGYFDYWGQGTLVTVSS
# VL: EIVLTQSPASLSLSPGERVTLSCRASQSVSNYLAWYQQKPGQAPRLLIYDASNRATGIPARFSGSGSGTDFTLTISSLEPEDFAVYYCQQRDNWPLTFGGGTKVEIK
# notes: human IgG1 format
# B3: A-028 (scFv format) (scFv, V domains shown)
# VH: QVQLVQSGAEVKKPGSSVKVSCKASGGTFSSYAISWVRQAPGQGLEWMGGIIPIFGTANYAQKFQGRVTITADESTSTAYMELSSLRSEDTAVYYCARVGVEYQLLWYFDYWGQGTLVTVSS
# VL: DIQMTQSPSSLSASVGDRVTLTCRTSQTISNYLNWYQQKPGKAPKLLVYAASNLQSWVPSRFSGSGSGTDFTLTISSLQPEDFATYYCQQSYNASFGGGTKVEFK
# notes: scFv
# B4: A-014 (scFv format) (scFv, V domains shown)
# VH: QVQLVQSGAEVKKPGASVKVSCKASGYTFNDYYIHWVRQAPGQGLEWMGWFNPSTGGANYAQKFQGRVTMTRDTSISTAYLEVSSLRSDDTAVYYCARGNSPDLDYWGQGTLVTVSS
# VL: DIQMTQSPDSLTVSLGERATINCKSSQSLLHSSNNKNYLAWYQQRPGQPPKLLIYWASTRQSGVPDRFSGSGSGTDFTLTINSLQADDMAVYYCQQYYTTTPNTFGQGTKLEIK
# notes: scFv
# B5: A-030 (scFv format) (scFv, V domains shown)
# VH: QVQLVQSGAEVKKPGASVKVSCKASGYTFTGYYMHWVRQAPGQGLEWMGWINPNSGNTGYAQKFQGRVTMTRNTSISTAYMELSSLRSEDTAVYYCARGGQQQLVLDDYWGQGTLVTVSS
# VL: DIQLTQSPSTLSASVGDRVTITCRASQSIGGWLAWYQHKPGKAPKLLIYAASSLQSGVPSRFSGSGSGTDFTLTISSLQPEDFATYYCRQSYSTPPTFGQGTKVEIK
# notes: scFv
# B6: A-032 (scFv format) (scFv, V domains shown)
# VH: B5 VH with I51M
# VL: not shown
# B7: A-019 (scFv format) (scFv, V domains shown)
# VH: B5 VH
# VL: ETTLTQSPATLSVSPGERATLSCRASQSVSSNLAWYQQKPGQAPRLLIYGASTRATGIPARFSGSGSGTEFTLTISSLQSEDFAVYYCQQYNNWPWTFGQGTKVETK
# notes: scFv
# B8: A-037 (scFv format) (scFv, V domains shown)
# VH: B5 VH
# VL: NFMLTQPHSVSESPGKTVTISCTGSSGSIASNYVQWYQQRPGSAPTTVIYEDNQRPSGVPDRFSGSIDSSSNSASLTISGLKTEDEADYYCQSYDSSNQRVFGGGTKLTVL
# notes: scFv
# B9: A-017 (scFv format) (scFv, V domains shown)
# VH: B5 VH
# VL: DIVLTQSPASLSASVGDRITITCQASQDIRHHLNWFQHKPGKAPKLLISDSSNLETGVPSRFSGSGSGTDFSFTISRLQPEDIATYYCQQYDSLPRTFGQGTKLEIK
# notes: scFv
# B10: A-036 (scFv format) (scFv, V domains shown)
# VH: B5 VH with N57G, G59N
# VL: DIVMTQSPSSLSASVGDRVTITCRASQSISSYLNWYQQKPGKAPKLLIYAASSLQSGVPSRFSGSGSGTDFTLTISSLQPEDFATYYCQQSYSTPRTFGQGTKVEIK
# notes: scFv
# B11: A-021 (scFv format) (scFv, V domains shown)
# VH: QVQLVQSGAEVKKPGASVKVSCKASGYTFTSYGISWVRQAPGQGLEWMGWISAYNGNTNYAQKLQGRVTMTTDTSTSTAYMELRSLRSDDTAVYYCARVPAWSGQFDYWGQGTLVTVSS
# VL: QSALTQPASVSGSPGQSITISCTGTSSDVGGYNYVSWYQQHPGKAPKLMIYEVTNRPSGVSDRFSGSKSANTASLTISELQAEDEAVYYCNSYTSGPTYVLFGGGTQLTVL
# notes: scFv
# B12: A-031 (scFv format) (scFv, V domains shown)
# VH: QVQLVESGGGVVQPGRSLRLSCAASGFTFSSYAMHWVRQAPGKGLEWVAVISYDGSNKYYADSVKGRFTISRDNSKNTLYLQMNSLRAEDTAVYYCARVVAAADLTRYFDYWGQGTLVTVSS
# VL: EIVLTQSPGTVSLSPGERATLSCRASQSVPKNYLAWFQQKPGQAPRLVIHTASSRAPGIPDRFTGSGSGTDFTLTISRLEPEDFAVYYCQQYGTSPNTFGQGTKLDIK
# notes: scFv
# B13: A-035 (IgG1 format) (antibody, V domains shown)
# VH: QVQLVQSGAEVKKPGASVKVSCKASGYTFTGYYMHWVRQAPGQGLEWMGWINPNSGNTGYAQKFQGRVTMTRNTSISTAYMELSSLRSEDTAVYYCARGRLERGYWYFDLWGRGTLVTVSS
# VL: NFMLTQPHSVSESPGRTVTISCTRSSGSITSNYVQWYQQRPGSAPTILIYEDKERPSEVPDRFSGSIDISSNSASLTISGLKTEDEADYYCQSYGGTSQGVLFGGGTKVTVL
# notes: human IgG1 format
# B14: A-034 (IgG1 format) (antibody, V domains shown)
# VH: QMQLVQSGGGLVKPGGSLRLSCAASGFTFSSYTMNWVRQAPGKGLEWVSSISSIGTYIYYADSVKGRFTISRDNAKNSLYLQMNSLRAEDTAVYYCARVLLSGSYYGYFDSWGQGTLVTVSS
# VL: QSVLTQPPSVSGAPGQRVTISCTGSSSNIGAGYDVHWYQQLPGTAPKLFIYGNSNRPSGVPDRFSGSKSGTSASLAITGLQAEDEADYYCQSYDSSLSGYVFGTGTKVTVL
# notes: human IgG1 format
# B15: A-010 (IgG1 format) (antibody, V domains shown)
# VH: B11 VH
# VL: QSALTQPASVSGSPGQSITISCTGSSSDVGGYNYVSWYQQYPGKAPKLMIYDVRSRPSGVSNRFSGSKSGNTASLTISGLQAEDEADYYCTSYTSSNTLVIFGGGTKVTVL
# notes: human IgG1 format
# Biological target: T1, human IGSF11 (VSIG3) on cells
# Experiment: FACS, IgG1-format antibodies; DMS 273 cells (D) treated with IGSF11 siRNA (KD)
row,Binder,percentage binding (FACS heat-map) [%]
1,B1,1.6
2,B2,2.63

# Biological target: T5, Streptavidin (UniProt P22629 37-163, limits assumed)
# T5 construct: also called negative antigen; irrelevant antigen
# Experiment: ELISA, scFv
# T5 sequence (P22629 37-163 limits assumed): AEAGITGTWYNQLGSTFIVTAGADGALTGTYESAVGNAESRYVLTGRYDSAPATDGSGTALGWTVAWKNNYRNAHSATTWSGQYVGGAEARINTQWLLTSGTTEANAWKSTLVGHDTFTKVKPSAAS
row,Binder,binding result
1,B3,no binding (tested: <0.025 or <0.05 RFU)
2,B4,no binding (tested: <0.025 or <0.05 RFU)
3,B5,no binding (tested: <0.025 or <0.05 RFU)
4,B6,no binding (tested: <0.025 or <0.05 RFU)
5,B7,no binding (tested: <0.025 or <0.05 RFU)
6,B8,no binding (tested: <0.025 or <0.05 RFU)
7,B9,no binding (tested: <0.025 or <0.05 RFU)
8,B10,no binding (tested: <0.025 or <0.05 RFU)
9,B11,no binding (tested: <0.025 or <0.05 RFU)
10,B12,no binding (tested: <0.025 or <0.05 RFU)

# Biological target: T1, human IGSF11 (VSIG3) on cells
# Experiment: FACS, IgG1-format antibodies; M579-A2-luc cells (M) treated with IGSF11 siRNA (KD)
row,Binder,percentage binding (FACS heat-map) [%]
1,B1,1.3
2,B2,2.5

# Biological target: T1, human IGSF11 (VSIG3) on cells
# Experiment: FACS, IgG1-format antibodies; DMS 273 cells (D) treated with scrambled control siRNA (SC)
row,Binder,percentage binding (FACS heat-map) [%]
1,B1,5.97
2,B2,14.3

# Biological target: T1, human IGSF11 (VSIG3) on cells
# Experiment: FACS, IgG1-format antibodies; CL-11 cells (C), a line that does not express IGSF11 (specificity control), IGSF11 siRNA (KD)
row,Binder,percentage binding (FACS heat-map) [%]
1,B1,2.91
2,B2,4.75

# Biological target: T2, His-tagged extracellular domain (ECD) …
# Experiment: ELISA EC50 grade, IgG1
row,Binder,EC50 [nM]
1,B13,0.02 to 0.05
2,B14,0.05 to 1
3,B15,< 0.02
4,B2,> 1

# Biological target: T1, human IGSF11 (VSIG3) on cells
# Experiment: FACS % positive cells, scFv
row,Binder,binding result
1,B3,binds
2,B4,binds
3,B5,binds
4,B6,binds
5,B7,binds
6,B8,binds
7,B9,binds
8,B10,binds
9,B11,binds
10,B12,binds

# Biological target: T1, human IGSF11 (VSIG3) on cells
# Experiment: FACS, HEK cells expressing IGSF11
row,Binder,EC50 [nM]
1,B13,> 50
2,B2,> 50

# Biological target: T1, human IGSF11 (VSIG3) on cells
# Experiment: FACS, IgG1-format antibodies; CL-11 cells (C), a line that does not express IGSF11 (specificity control), scrambled control siRNA (SC)
row,Binder,percentage binding (FACS heat-map) [%]
1,B1,1.95
2,B2,3.08

# Biological target: T1, human IGSF11 (VSIG3) on cells
# Experiment: FACS, IgG1-format antibodies; M579-A2-luc cells (M) treated with scrambled control siRNA (SC)
row,Binder,percentage binding (FACS heat-map) [%]
1,B1,1.17
2,B2,3.32

# Biological target: T3, IGSF11 ECD fused to murine-Fc
# Experiment: ELISA, IgG
row,Binder,EC50 [nM]
1,B13,1 to 20
2,B15,< 1
3,B2,1 to 20

# Biological target: T4, recombinant human IGSF11 (VSIG3) …
# Experiment: SPR, IgG1
row,Binder,Kd [nM]
1,B14,250 to 500

# — US20240010720A1 (IOMX THERAPEUTICS, published 2024)
